{"source": "paper PMC6747400", "about": "“Mismatch Recognition by Saccharomyces cerevisiae Msh2-Msh6: Role of Structure and Dynamics”", "binders": {"B1": {"name": "6-MI:C (dsDNA)", "DNA 1": "TATGCAGTCACTATGAATCAACTACTTAGATGGT", "DNA 2": "ACCATCTAAGTAGTTGATTCATAGTGACTGCATA", "modifications": "6-MI replaces G15 of strand 1 (F, written G)"}, "B2": {"name": "6-MI:T (dsDNA)", "DNA 1": "B1 DNA 1", "DNA 2": "B1 DNA 2 with C20T", "modifications": "6-MI replaces G15 of strand 1 (F, written G)"}, "B3": {"name": "6-MI_A:A (dsDNA)", "DNA 1": "B1 DNA 1", "DNA 2": "B1 DNA 2 with T19A", "modifications": "6-MI replaces G15 of strand 1 (F, written G)"}, "B4": {"name": "6-MI_A:G (dsDNA)", "DNA 1": "B1 DNA 1", "DNA 2": "B1 DNA 2 with T19G", "modifications": "6-MI replaces G15 of strand 1 (F, written G)"}, "B5": {"name": "6-MI_A:C (dsDNA)", "DNA 1": "B1 DNA 1", "DNA 2": "B1 DNA 2 with T19C", "modifications": "6-MI replaces G15 of strand 1 (F, written G)"}, "B6": {"name": "+T_6-MI (dsDNA)", "DNA 1": "B1 DNA 1", "DNA 2": "ACCATCTAAGTAGTTGATTCTAGTGACTGCATA", "modifications": "6-MI replaces G15 of strand 1 (F, written G)"}, "B7": {"name": "G:C_AF647 (dsDNA)", "DNA 1": "B1 DNA 1", "DNA 2": "B1 DNA 2", "modifications": "5' amino C6 on strand 1"}, "B8": {"name": "G:T_AF594 (dsDNA)", "DNA 1": "B1 DNA 1", "DNA 2": "B1 DNA 2 with C20T", "modifications": "5' amino C6 on strand 1"}, "B9": {"name": "G:G end-labeled (dsDNA)", "DNA 1": "B1 DNA 1", "DNA 2": "B1 DNA 2 with C20G", "modifications": "5' amino C6"}, "B10": {"name": "+T_AF594 (dsDNA)", "DNA 1": "B1 DNA 1", "DNA 2": "B6 DNA 2", "modifications": "5' amino C6 on strand 1"}, "B11": {"name": "6-MI:A (dsDNA)", "DNA 1": "B1 DNA 1", "DNA 2": "B1 DNA 2 with C20A", "modifications": "6-MI replaces G15 of strand 1 (F, written G)"}, "B12": {"name": "6-MI:G (dsDNA)", "DNA 1": "B1 DNA 1", "DNA 2": "B1 DNA 2 with C20G", "modifications": "6-MI replaces G15 of strand 1 (F, written G)"}, "B13": {"name": "T:G_6-MI (dsDNA)", "DNA 1": "B1 DNA 1", "DNA 2": "B1 DNA 2 with A21G", "modifications": "6-MI replaces G15 of strand 1 (F, written G)"}, "B14": {"name": "T:T_6-MI (dsDNA)", "DNA 1": "B1 DNA 1", "DNA 2": "B1 DNA 2 with A21T", "modifications": "6-MI replaces G15 of strand 1 (F, written G)"}, "B15": {"name": "T:C_6-MI (dsDNA)", "DNA 1": "B1 DNA 1", "DNA 2": "B1 DNA 2 with A21C", "modifications": "6-MI replaces G15 of strand 1 (F, written G)"}, "B16": {"name": "A:A_6-MI (dsDNA)", "DNA 1": "B1 DNA 1 with T26A", "DNA 2": "B1 DNA 2", "modifications": "6-MI replaces G10 of strand 2 (F, written G)"}}, "key": {"[1]": {"biological_target": "T1, Msh2;Msh6 (Saccharomyces cerevisiae;Saccharomyces …, UniProt P25847;Q03834 1-964;1-1242, |)", "T1 sequence (P25847 whole entry, chain 1 of 2)": "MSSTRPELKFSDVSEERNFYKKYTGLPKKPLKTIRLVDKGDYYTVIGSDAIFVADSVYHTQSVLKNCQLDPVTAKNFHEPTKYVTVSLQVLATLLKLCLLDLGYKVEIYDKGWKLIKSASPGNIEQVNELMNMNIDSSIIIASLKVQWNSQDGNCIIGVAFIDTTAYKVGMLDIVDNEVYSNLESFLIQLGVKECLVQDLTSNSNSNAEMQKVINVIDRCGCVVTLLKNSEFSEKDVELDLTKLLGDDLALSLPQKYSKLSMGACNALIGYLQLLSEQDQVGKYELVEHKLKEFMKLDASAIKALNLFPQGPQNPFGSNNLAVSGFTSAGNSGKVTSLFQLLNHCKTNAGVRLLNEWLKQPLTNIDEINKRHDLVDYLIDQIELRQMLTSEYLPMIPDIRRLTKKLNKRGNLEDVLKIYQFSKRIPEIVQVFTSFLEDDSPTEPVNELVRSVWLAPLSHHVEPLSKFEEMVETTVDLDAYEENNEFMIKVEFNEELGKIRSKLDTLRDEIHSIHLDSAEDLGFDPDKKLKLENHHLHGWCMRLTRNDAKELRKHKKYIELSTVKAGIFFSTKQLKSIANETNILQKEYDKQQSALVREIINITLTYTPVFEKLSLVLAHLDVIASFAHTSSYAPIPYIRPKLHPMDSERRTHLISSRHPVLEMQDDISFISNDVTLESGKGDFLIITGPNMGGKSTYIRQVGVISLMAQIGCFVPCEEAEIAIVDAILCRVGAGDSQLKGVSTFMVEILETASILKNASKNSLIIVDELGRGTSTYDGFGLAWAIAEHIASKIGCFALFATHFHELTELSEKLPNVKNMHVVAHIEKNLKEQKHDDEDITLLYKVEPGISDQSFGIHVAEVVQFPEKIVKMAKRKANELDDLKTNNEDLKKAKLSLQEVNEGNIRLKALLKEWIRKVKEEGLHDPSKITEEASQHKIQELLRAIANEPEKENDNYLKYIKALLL", "T1 sequence (Q03834 whole entry, chain 2 of 2)": "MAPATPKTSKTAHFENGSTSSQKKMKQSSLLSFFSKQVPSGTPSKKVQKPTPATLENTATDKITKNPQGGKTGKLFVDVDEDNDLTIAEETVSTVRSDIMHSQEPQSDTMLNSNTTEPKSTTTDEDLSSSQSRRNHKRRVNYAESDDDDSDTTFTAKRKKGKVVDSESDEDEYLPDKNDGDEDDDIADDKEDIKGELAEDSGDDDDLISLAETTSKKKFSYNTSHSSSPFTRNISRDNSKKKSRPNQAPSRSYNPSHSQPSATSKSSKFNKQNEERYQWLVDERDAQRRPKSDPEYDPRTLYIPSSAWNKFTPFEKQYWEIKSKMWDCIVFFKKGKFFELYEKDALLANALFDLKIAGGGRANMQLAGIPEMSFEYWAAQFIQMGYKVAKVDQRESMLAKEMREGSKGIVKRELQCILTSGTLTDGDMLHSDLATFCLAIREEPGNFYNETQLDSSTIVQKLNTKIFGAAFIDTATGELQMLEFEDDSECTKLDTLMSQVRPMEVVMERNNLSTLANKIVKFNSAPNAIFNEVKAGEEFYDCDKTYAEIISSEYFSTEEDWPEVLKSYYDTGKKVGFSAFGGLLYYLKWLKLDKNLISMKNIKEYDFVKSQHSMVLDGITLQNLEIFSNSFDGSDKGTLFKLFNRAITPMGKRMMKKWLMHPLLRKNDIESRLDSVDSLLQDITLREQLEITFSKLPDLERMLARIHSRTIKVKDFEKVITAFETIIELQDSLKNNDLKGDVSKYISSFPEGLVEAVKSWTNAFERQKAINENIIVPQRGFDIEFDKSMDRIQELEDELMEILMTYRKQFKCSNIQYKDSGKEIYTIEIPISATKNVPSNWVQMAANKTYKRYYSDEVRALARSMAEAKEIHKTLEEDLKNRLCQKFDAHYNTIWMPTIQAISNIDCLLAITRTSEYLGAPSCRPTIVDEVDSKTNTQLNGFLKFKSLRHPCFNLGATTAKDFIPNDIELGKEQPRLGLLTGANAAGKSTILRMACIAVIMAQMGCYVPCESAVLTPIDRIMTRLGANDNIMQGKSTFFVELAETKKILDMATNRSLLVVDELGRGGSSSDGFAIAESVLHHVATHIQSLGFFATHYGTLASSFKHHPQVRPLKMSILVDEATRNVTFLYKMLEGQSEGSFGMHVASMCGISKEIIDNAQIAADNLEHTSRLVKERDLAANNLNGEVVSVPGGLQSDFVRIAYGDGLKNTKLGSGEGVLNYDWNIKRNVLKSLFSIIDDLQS", "experiment": "fluorescence anisotropy; Fluorescence/FRET: 10 mM sodium phosphate pH 7.5, 100 mM NaCl, 5 mM MgCl2, 10 C (10 nM DNA for anisotropy); EMSA: 20 mM Tris-Cl pH 7.5, 100 mM NaCl, 5 mM MgCl2, 2% ficoll, 4 C, 10 nM DNA", "conditions": "protein: recombinant;recombinant, tags: ;, copies: 1;1, blunt"}, "[2]": {"biological_target": "T1, Msh2;Msh6", "experiment": "fluorescence intensity; Fluorescence/FRET: 10 mM sodium phosphate pH 7.5, 100 mM NaCl, 5 mM MgCl2, 10 C (10 nM DNA for anisotropy); EMSA: 20 mM Tris-Cl pH 7.5, 100 mM NaCl, 5 mM MgCl2, 2% ficoll, 4 C, 10 nM DNA", "conditions": "protein: recombinant;recombinant, tags: ;, copies: 1;1, label: 6-MI internal, blunt"}, "[3]": {"biological_target": "T1, Msh2;Msh6", "experiment": "fluorescence anisotropy; Figure S2 legend gives 92.1 ± 13.9; Fluorescence/FRET: 10 mM sodium phosphate pH 7.5, 100 mM NaCl, 5 mM MgCl2, 10 C (10 nM DNA for anisotropy); EMSA: 20 mM Tris-Cl pH 7.5, 100 mM NaCl, 5 mM MgCl2, 2% ficoll, 4 C, 10 nM DNA", "conditions": "protein: recombinant;recombinant; tags: ;; copies: 1;1; label: 5' Alexa Fluor 647 on strand 1; blunt homoduplex"}, "[4]": {"biological_target": "T1, Msh2;Msh6", "experiment": "fluorescence anisotropy; Table 1 prints this value in the intensity column of +T_6-MI; Fluorescence/FRET: 10 mM sodium phosphate pH 7.5, 100 mM NaCl, 5 mM MgCl2, 10 C (10 nM DNA for anisotropy); EMSA: 20 mM Tris-Cl pH 7.5, 100 mM NaCl, 5 mM MgCl2, 2% ficoll, 4 C, 10 nM DNA", "conditions": "protein: recombinant;recombinant; tags: ;; copies: 1;1; label: 5' Alexa Fluor 594 on strand 1; blunt, unpaired T14 in strand 1"}, "[5]": {"biological_target": "T1, Msh2;Msh6", "experiment": "fluorescence anisotropy; text gives error 6.9; Fluorescence/FRET: 10 mM sodium phosphate pH 7.5, 100 mM NaCl, 5 mM MgCl2, 10 C (10 nM DNA for anisotropy); EMSA: 20 mM Tris-Cl pH 7.5, 100 mM NaCl, 5 mM MgCl2, 2% ficoll, 4 C, 10 nM DNA", "conditions": "protein: recombinant;recombinant; tags: ;; copies: 1;1; label: 6-MI internal; blunt, 6-MI:A mismatch"}}, "note": "Where a chain is given by its changes, count along the chain named.", "data": [{"binder": "B1", "values": [{"measurement": "Kd", "setting": "[1]; label: 6-MI internal, 34 bp homoduplex", "value": "122 ± 12.1", "unit": "nM"}]}, {"binder": "B2", "values": [{"measurement": "Kd", "setting": "[1]; label: 6-MI internal, 6-MI:T mismatch", "value": "13.7 ± 3.4", "unit": "nM"}]}, {"binder": "B3", "values": [{"measurement": "Kd", "setting": "[1]; label: 6-MI internal, A16:A mismatch", "value": "7.9 ± 2", "unit": "nM"}, {"measurement": "Kd", "setting": "[2]; A16:A mismatch", "value": "19.1 ± 3.5", "unit": "nM"}]}, {"binder": "B4", "values": [{"measurement": "Kd", "setting": "[1]; label: 6-MI internal, A16:G mismatch", "value": "9 ± 2.8", "unit": "nM"}, {"measurement": "Kd", "setting": "[2]; A16:G mismatch", "value": "11.8 ± 2.8", "unit": "nM"}]}, {"binder": "B5", "values": [{"measurement": "Kd", "setting": "[1]; label: 6-MI internal, A16:C mismatch", "value": "13.3 ± 3.6", "unit": "nM"}, {"measurement": "Kd", "setting": "[2]; A16:C mismatch", "value": "17.1 ± 4.3", "unit": "nM"}]}, {"binder": "B6", "values": [{"measurement": "Kd", "setting": "[1]; label: 6-MI internal, unpaired T14 in strand 1 (34/33 nt)", "value": "16 ± 2.9", "unit": "nM"}]}, {"binder": "B7", "values": [{"measurement": "Kd", "setting": "[3]", "value": "106 ± 13.9", "unit": "nM"}]}, {"binder": "B8", "values": [{"measurement": "Kd", "setting": "[1]; label: 5' Alexa Fluor 594 on strand 1, G15:T mismatch", "value": "13.3 ± 3.9", "unit": "nM"}]}, {"binder": "B9", "values": [{"measurement": "Kd", "setting": "[1]; label: Alexa Fluor 594 or 647, G15:G mismatch", "value": "15.6 ± 3.4", "unit": "nM"}]}, {"binder": "B10", "values": [{"measurement": "Kd", "setting": "[4]", "value": "18.1 ± 2.6", "unit": "nM"}]}, {"binder": "B11", "values": [{"measurement": "Kd", "setting": "[5]", "value": "25.8 ± 12.3", "unit": "nM"}]}, {"binder": "B12", "values": [{"measurement": "Kd", "setting": "[1]; label: 6-MI internal, 6-MI:G mismatch", "value": "10.4 ± 5.8", "unit": "nM"}]}, {"binder": "B13", "values": [{"measurement": "Kd", "setting": "[1]; label: 6-MI internal, T14:G mismatch", "value": "25.9 ± 1.2", "unit": "nM"}]}, {"binder": "B14", "values": [{"measurement": "Kd", "setting": "[1]; label: 6-MI internal, T14:T mismatch", "value": "77.5 ± 20", "unit": "nM"}]}, {"binder": "B15", "values": [{"measurement": "Kd", "setting": "[1]; label: 6-MI internal, T14:C mismatch", "value": "113 ± 18.7", "unit": "nM"}]}, {"binder": "B16", "values": [{"measurement": "Kd", "setting": "[1]; label: 6-MI internal, A26:A mismatch", "value": "11.3 ± 3.1", "unit": "nM"}, {"measurement": "Kd", "setting": "[2]; A26:A mismatch", "value": "10.4 ± 2.4", "unit": "nM"}]}]}
